The target of assay [1] is T1, human JAG1 on cells (K562 cells; Calu-6 cells) (human, UniProt P78504 34-1218). Description: cell-based or functional assay.
Assay [2] has as its target T1, human JAG1 on cells (K562 cells; Calu-6 …). Description: flow cytometry on K562 cells, IgG titrated, PE anti-human IgG, median fluorescence. The protocol:
This example describes a cellular binding assay to determine the EC₅₀ for certain anti-JAG1 antibodies binding to K562 cells (ATCC CCL-243), where the concentration at which 50% binding saturation (EC₅₀) is reached. In this example, K562 cells were resuspended in FACS Buffer (2% Fetal Bovine Serum in PBS) at 1×10⁶ cells/ml. 50 μl (0.5×10⁵ cells) were aliquoted into the wells of a 96-well plate. Plated cells were spun down and the supernatant discarded. Cells were resuspended in serially diluted concentrations of each JAG1 IgG in 30 μl FACS Buffer done in triplicate. The antibodies and cells were incubated for 1 hr at 4° C. and then washed 2× with FACS Buffer. Cells were resuspended in 50 μl goat anti-human IgG (γ-chain specific)-PE-conjugated secondary antibody (Southern Biotech #2040-09) diluted 1:750 in FACS Buffer. Cells were further incubated in the dark for 30 min at 4° C. and then washed 1× with FACS Buffer. The cells were resuspended in a final volume of 30 μl FACS Buffer and analyzed using an Intellicyt Flow Cytometer. Median fluorescence in the FL-2H channel was determined using FlowJo software and EC₅₀ value was determined by a variable slope non-linear regression using ForeCyte software.

Assay [3] has as its target T2, Recombinant human JAG1/His (human, UniProt P78504 34-1046, limits assumed).
T2 construct: Analyte of the BiaCore assay; also called human JAW [sic]; not shown: His tag
The experiment in a line: SPR (BiaCore), antibody captured on anti-human Fc CM5 chip, JAG1/His as analyte, 1:1 Langmuir fit. The procedure:
The binding affinity of antibody JG1H7 for human JAG1 was tested using a BiaCore assay. Specifically, anti-human Fc antibody (GE, BR-1008-39) was immobilized on a CM5 sensor chip to approximately 700 RU using standard NHS/EDC coupling methodology. Antibodies (about 10 μg/ml) were captured for 60 s at a flow rate 10 μl/min. Recombinant human JAG1/His was serially diluted in running buffer (HBS-EP). All measurements were conducted with a flow rate of 30 μL/min Surfaces were regenerated with 3M MgCl₂ for 60 s. A 1:1 (Langmuir) binding model was used to fit the data.
In general terms: SPR reads the build-up and loss of mass on a sensor chip optically.

For a further assay, the target named is T3, human JAG2-Fc (human, UniProt Q9Y219 24-1080, limits assumed).
T3 construct: not shown: Fc
T3 sequence (Q9Y219 24-1080 limits assumed): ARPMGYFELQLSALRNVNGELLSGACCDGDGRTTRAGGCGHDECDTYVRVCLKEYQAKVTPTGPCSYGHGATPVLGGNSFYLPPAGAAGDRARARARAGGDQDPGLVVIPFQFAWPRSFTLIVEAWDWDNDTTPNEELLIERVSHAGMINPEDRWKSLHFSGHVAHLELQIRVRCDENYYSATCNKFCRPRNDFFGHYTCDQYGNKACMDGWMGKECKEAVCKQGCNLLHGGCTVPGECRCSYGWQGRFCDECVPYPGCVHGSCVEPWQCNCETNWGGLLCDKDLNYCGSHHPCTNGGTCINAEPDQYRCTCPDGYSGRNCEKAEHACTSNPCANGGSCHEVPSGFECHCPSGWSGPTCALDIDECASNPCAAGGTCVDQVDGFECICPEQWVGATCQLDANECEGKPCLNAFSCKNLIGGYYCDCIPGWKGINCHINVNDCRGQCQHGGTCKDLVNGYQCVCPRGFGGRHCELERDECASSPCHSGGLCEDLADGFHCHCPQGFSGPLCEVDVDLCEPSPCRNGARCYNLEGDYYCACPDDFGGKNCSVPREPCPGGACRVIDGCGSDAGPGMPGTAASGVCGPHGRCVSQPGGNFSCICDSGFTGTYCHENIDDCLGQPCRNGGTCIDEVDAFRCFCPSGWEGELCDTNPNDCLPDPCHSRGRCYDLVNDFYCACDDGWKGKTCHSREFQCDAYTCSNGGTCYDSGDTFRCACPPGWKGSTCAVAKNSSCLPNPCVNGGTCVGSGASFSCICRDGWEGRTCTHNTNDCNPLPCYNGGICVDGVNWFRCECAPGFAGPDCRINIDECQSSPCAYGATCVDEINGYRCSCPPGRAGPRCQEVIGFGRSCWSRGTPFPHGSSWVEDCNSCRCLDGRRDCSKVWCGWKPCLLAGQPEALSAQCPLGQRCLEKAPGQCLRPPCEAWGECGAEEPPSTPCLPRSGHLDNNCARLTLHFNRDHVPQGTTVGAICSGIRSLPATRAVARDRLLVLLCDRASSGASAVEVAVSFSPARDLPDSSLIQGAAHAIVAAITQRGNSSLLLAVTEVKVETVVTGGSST
The experiment in a line: ELISA: plate coated with human JAG2-Fc, serially diluted IgG, labeled goat anti-human Fd antibody, absorbance. The protocol:
An ELISA assay was also carried out to determine the ability of the identified antibodies to bind to human JAG2. A 96-well ELISA plate was coated with human JAG2-Fc overnight. The next morning the plate was blocked with casein solution for 1 hour, followed by addition of serially diluted JG1H7 and JG1B10 IgG antibodies. As a control, antibodies were added to wells that were not coated with JAG2-Fc. After incubating for an hour, the plate was washed and labeled goat anti-human FD antibody was added for 30 minutes. The plate was washed, developed with substrate and the absorbance in each well measured on a spectrophotometer.

Assay [4] concerns the target T4, biotinylated human delta-like 1 (DLL1) (human, UniProt O00548 18-540, limits assumed, biotinylated (sites not given)).
T4 sequence (looked up): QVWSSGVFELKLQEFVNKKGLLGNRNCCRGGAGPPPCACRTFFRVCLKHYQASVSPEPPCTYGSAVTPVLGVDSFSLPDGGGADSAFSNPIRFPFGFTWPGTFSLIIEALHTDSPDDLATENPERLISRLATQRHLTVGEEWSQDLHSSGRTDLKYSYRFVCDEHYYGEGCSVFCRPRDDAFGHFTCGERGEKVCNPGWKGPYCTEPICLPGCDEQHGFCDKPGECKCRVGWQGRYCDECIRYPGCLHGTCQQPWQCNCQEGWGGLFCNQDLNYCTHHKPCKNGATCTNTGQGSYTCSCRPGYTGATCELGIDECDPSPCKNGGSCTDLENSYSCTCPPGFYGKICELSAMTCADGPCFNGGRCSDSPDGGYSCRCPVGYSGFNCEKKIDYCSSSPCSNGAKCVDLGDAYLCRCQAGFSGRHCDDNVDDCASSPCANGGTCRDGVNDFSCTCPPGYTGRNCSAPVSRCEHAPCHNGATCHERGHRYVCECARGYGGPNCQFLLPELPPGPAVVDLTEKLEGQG
The experiment in a line: capture ELISA: JG1H7 IgG captured on anti-human kappa, serially diluted biotinylated DLL1, neutravidin-AP, PNPP, absorbance. The procedure: (§1) Finally, an ELISA assay was carried out to determine antibody cross-reactivity to delta-like 1 (DLL1) and delta-like 2 (DLL2). One ELISA plate was coated with anti-human lambda and another ELISA plate was coated with anti-human kappa overnight at 4° C. The next morning each plate was blocked with a 1:1 mixture of casein:Super Block for 2 hours at room temperature. The B10 IgG was diluted to 0.3 μg/ml in block and added to the anti-human lambda coated wells, while the JG1H7 IgG was diluted to 0.3 μg/ml in block and added to the anti-human kappa coated wells and incubated at room temperature for 3 hours. As a control, other wells were treated with only block. After washing, serially-diluted biotinylated antigen (JAG1, DLL1, DLL2) was added to a column with captured antibody and a control column with no antibody, and incubated 1 hour at room temperature. After washing, neutravidin-AP was added, incubated for 20 min at room temperature, the plate washed and developed with 1-step PNPP, and the plate analyzed in a plate reader.
(In general: An ELISA detects its analyte on a solid surface through an enzyme-linked reagent.)

The target in assay [5] is T4, biotinylated human delta-like 1 (DLL1). Description: capture ELISA: B10 IgG captured on anti-human lambda, serially diluted biotinylated DLL1, neutravidin-AP, PNPP, absorbance. The protocol:
as §1

T1 sequence (P78504 34-1218): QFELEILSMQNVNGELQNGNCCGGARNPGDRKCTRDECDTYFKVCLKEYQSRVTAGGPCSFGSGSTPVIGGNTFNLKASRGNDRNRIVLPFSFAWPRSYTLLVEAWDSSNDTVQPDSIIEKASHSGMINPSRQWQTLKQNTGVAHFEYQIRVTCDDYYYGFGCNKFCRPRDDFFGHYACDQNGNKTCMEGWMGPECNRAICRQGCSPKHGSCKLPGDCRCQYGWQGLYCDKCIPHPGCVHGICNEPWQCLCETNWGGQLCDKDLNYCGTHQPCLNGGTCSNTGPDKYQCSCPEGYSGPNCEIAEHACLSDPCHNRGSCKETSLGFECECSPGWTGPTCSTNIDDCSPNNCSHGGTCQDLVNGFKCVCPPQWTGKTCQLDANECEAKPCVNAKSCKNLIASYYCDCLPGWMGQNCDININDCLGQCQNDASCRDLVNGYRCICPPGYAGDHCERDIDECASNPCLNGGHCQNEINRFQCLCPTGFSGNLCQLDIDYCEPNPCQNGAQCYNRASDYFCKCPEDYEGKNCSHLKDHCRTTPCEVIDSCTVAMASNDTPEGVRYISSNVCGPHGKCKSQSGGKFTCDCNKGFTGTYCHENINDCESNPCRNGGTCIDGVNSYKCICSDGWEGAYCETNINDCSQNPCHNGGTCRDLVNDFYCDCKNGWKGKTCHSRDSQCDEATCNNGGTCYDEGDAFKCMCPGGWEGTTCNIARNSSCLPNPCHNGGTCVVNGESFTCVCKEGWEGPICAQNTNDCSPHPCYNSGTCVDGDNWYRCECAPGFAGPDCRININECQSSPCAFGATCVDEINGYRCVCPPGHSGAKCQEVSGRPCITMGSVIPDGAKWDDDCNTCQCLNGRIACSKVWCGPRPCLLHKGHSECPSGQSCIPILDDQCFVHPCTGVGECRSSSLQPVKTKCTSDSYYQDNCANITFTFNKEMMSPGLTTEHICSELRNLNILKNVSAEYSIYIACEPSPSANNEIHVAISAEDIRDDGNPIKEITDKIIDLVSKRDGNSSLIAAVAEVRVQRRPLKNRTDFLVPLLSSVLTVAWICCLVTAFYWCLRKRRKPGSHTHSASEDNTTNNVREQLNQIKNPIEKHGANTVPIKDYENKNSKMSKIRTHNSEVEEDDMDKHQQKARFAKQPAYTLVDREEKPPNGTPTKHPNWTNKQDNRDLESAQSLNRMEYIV

B1: JG1C8 (antibody, V domains shown)
VH: EVQLVQSGAEVKKPGSSVKVSCKASGGTFSSYAISWVRQAPGQGLEWMGWISAYNGNTNYAQKLQGRVTMTTDTSTSTAYMELRSLRSDDTAVYYCARSRYDFWSGYYSGMDVWGQGTTVTVSS
VL: NFMLTQPRSVSGSPGQSVTISCTGTSSDVGGYHYVSWYQQHPGKAPKLIIYDVSRRPSGVPDRFSGSKSGNTASLTVSGLQAEDEADYYCSSYGGSNNFVFGTGTKLTVL
For orientation: EC50 means the concentration that produces a half-maximal response. The low end stands for greater potency, the high end for weaker potency. B1: in assay [1], the “IC50 (nM) of killing of Calu-6 cells by the antibody pre-complexed with Protein G-DM1 (1:4), Cell Titer Glo after 6 days” value (from here on “IC50 (nM) of killing of Calu-6 cells”) is 87.3 nM. Moreover, the concentration for a half-maximal effect (EC50) in assay [2] was determined as 16 nM.

B2: JG1H7 (antibody, V domains shown)
VH: QVQLVQSGGGLIQPGGSLRLSCAASAFTVSNFYMTWVRQAPGKGLEWVSVIDSGGNTYYADSVRGRFTISRDNSKNTLFLQMNSLRAEDTAVYYCARDLGYYYAMDVWGQGTTVTVSS
VL: DIVMTQSPSSLSASVGDRVTITCRASQSISTSLNWYQQKPGKAPKLLIYAASSLQSGVPSRFSGSGSGTDFTLTISSLQPEDFATYYCQQSYSTPTFGQGTKLEIK
notes: captured by anti-human Fc in the BiaCore assay
One may read the Kd as the concentration at which binding is half-saturated. In general, koff refers to the first-order rate constant of dissociation. For orientation: kon means the rate constant with which the complex forms. Usually EC50 (read off the curve) stands for the midpoint of the concentration-response curve. For B2, the “IC50 (nM) of killing of Calu-6 cells” value in assay [1] was 3.89 nM. In assay [2], this molecule gave an EC50 of 16 nM. Also, in assay [3], the Ka worked out at 4.8e+06 M⁻¹, the Kd was 208 nM, the koff was 0.0411 s⁻¹ and the kon is 197000 M⁻¹ s⁻¹. Besides, the “EC50 (read off the curve)” value with human JAG2-Fc was ~0.1 µg/mL. For the same molecule, the binding result in assay [4] is on record as “no binding”.

B3: JG1A7 (antibody, V domains shown)
VH: QVQLVESGGGLVKPGGSLRLSCAASGFTFSDYYMSWIRQAPGKGLEWVSYISSSGSTIYYADSVKGRFTISRDNAKNSLYLQMNSLRAEDTAVYYCARVNSGYDAVDYWGQGTLVTVSS
VL: QSALTQPPSVSGAPGQTVTISCTGSRSNIGTYDVHWYQQFAGSAPKLLIYHNNDRSSGVPDRFSGSKSGTSASLAITGLQAEDEAVYFCQSHDNVLGGVFGGGTKLTVL
As for B3, the EC50 in assay [2] is < 1 nM.

B4: JG1H11 (antibody, V domains shown)
VH: EVQLVESGGGVVQPGRSLRLSCAASGFTFSSYGMHWVRQAPGKGLEWVAVISYDGSNKYYADSVKGRFTISRDNSKNTLYLQMNSLRAEDTAVYYCAKDDWNYALDYWGQGTLVTVSS
VL: QPVLTQPASVSGSPGQSITISCTGTRSDVGGYSYVSWYQQHPGKAPKLIYDVTKRPSGVSNRFSGSKSGNTASLTISGLQAEDEADYYCSSYTSSSTYVFGTGTKVTVL
In the case of B4, the “IC50 (nM) of killing of Calu-6 cells” value in assay [1] came out at 26.5 nM. In assay [2], this molecule gave an EC50 of 27 nM.

B5: JG1B10 (antibody, V domains shown)
VH: EVQLVESGGGLVQPGGSLRLSCAASGSTFSSYGMHWVRQAPGKGLEWVAVIWYDGSNKYYADSVKGRFTISRDNSKNTLYLQMNSLRAEDTAVYYCARGYNHDYWGQGTLVTVSS
VL: LPVLTQPASVSGSPGQSITISCTGTSSDVGGYNYVSWYQQHPGKAPKLMIYDVSNRPSGVSNRFSGSKSGNTASLTISGLQAEDEADYYCSSYTSSSTYVFGIGTKLTVL
notes: also called B10JAG1
Take B5: the “IC50 (nM) of killing of Calu-6 cells” value in assay [1] amounted to 1.35 nM. This molecule also showed an EC50 in assay [2] of 32 nM. Further, the binding result in assay [5] is recorded as “no binding”.

B6: JH1F4 (antibody, V domains shown)
VH: QVQLVQSGAEVKKPGASVKVSCKASGYTFTSYAMHWVRHAPGQRLEWMGWINAGNGNTKYSQKFQGRVTITRDTSASTAYMELSSLRSEDTAVYYCARDLDYYYGMDVWGQGTTVTVSS
VL: QPVLTQPPSASGTPGQRVTISCSGSSSNIGSNIVNWYQQLPGTAPKLLIYSNNRRPSGVPDRFSGSKSGSSASLAISGLQSEDEADYYCAAWDATLGGLYVFGTGTKVTVL
notes: also called JH-F4
In assay [2], B6 registered a concentration giving a half-maximal response (EC50) of 97 nM. That is a double-digit nanomolar value.

Source of the values: US20160257759A1 (SORRENTO THERAPEUTICS, published 2016).
